Consider three variants from IntAct's records for PubMed 16239229.

The labels stand for the following.
B1: Co-chaperonin GroES (Escherichia coli (strain K12)), P0A6F9 (parent)
chain: MNIRPLHDRVIVKRKEVETKSAGGIVLTGSAAAKSTRGEVLAVGNGRILENGEVKPLDVKVGDIVIFNDGYGVKSEKIDNEEVLIMSESDILAIVEA

The variants in the test derive from B1. As to conditions: with ch60_ecoli groEL.
Take MNIRPLHDRVIVKRKEVETKSAGGIVLTCSAAAKSTRGEVLAVGNGRILENGEVKPLDVKVGDIVIFNDGYGVKSEKIDNEEVLIMSESDILAIVEA: the “effect of a mutation on the interaction” value was “increasing interaction strength”.
On to MNIRPLHDRVIVKRKEVETKSAGGIVLTGCAAAKSTRGEVLAVGNGRILENGEVKPLDVKVGDIVIFNDGYGVKSEKIDNEEVLIMSESDILAIVEA, for which the “effect of a mutation on the interaction” value is given as “increasing interaction strength”.
Under MNIRPLHDRVIVKRKEVETKSAGGIVLCGSAAAKSTRGEVLAVGNGRILENGEVKPLDVKVGDIVIFNDGYGVKSEKIDNEEVLIMSESDILAIVEA stands “increasing interaction”.
